Laboratory results: patent US20240343803A1 (SHANDONG SIMCERE BIOPHARMACEUTICAL, published 2024)
Positions count from the first letter of the chain named.

T1: human PVRIG-mFc protein (Acro, PVG-H5253) (human, UniProt Q6DKI7 41-171, limits assumed)
T1 construct: bought reagent; also called PVRIG-ECD-mFc
T1 sequence (looked up): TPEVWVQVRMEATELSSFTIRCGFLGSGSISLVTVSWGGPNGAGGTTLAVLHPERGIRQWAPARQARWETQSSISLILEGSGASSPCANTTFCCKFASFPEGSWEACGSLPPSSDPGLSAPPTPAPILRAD

T2: human PVRIG-his (AcroBiosystems, Cat NO. PVG-H52H4) (human, UniProt Q6DKI7 41-171, limits assumed)
T2 construct: treated as the same protein; also called human PVRIG-His protein; Human PVRIG-His, Acro C227P1-9ARF1-T4
T2 sequence (looked up): T1 sequence (looked up)

T3: human PVRIG-his (AcroBiosystems, Cat NO. PVG-H52H4) (human, UniProt Q6DKI7 41-171, limits assumed)
T3 construct: also called human PVRIG protein
T3 sequence (looked up): T1 sequence (looked up)

T4: cynomolgus monkey PVRIG (Novoprotein, Cat NO. C09B) (cynomolgus monkey, UniProt A0A2K5WVV8 41-171)
T4 construct: also called cynomolgus monkey PVRIG protein
T4 sequence: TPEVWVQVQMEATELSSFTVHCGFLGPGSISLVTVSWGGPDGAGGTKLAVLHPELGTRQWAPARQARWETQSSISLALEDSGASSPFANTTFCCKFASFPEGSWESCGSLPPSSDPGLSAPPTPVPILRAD

T5: human PVRIG on FlpinCHO-PVRIG cells (human, UniProt Q6DKI7 41-326)
T5 construct: whole, on cells
T5 sequence (looked up): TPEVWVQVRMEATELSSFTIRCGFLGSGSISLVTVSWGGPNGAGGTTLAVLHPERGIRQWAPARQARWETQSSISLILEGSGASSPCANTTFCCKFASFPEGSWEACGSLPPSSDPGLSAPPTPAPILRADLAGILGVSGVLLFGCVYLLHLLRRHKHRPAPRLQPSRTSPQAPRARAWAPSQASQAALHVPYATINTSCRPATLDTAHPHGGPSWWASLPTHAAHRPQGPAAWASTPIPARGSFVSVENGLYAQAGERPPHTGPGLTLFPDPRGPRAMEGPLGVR

B1: PVRIG-A113 (VHH)
VHH: QLQLVESGGGLVQSGGSLRLSCAASGRTRSMYVMGWFRQAPGKEREFVGRIKWSGDTTYTSYADFVKGRFTLYGNQARNTVYLQMNSLKPEDTAVYYCAALPSDYDYRAASYGVDYWGKGTLVTVSS
notes: tested as VHH-hinge-CH2-CH3 (human IgG1-Fc); not shown: human IgG1 hinge-CH2-CH3
B2: PVRIG-A105-H3a (Fc fusion)
chain: EVQLVESGGGLVQPGGSLRLSCAASGRTFDRHTMTWFRQAPGKEREFVATASRIPGDTYYVDSVKGRFTISRDNAKNSVYLQMNSLRAEDTAVYYCAATSAYSSEVDSYEKGSWYDNWGQGTMVTVSS
notes: humanized variant of PVRIG-A105; also called A105.VH3a; not shown: constant part not restated for the humanized forms; parents are VHH-hinge-CH2-CH3 of human IgG1; detected by anti-human
B3: PVRIG-A15 (VHH)
VHH: QVQLVESGGGLVQAGGSLRLSCVASGRTFSANTMAWFRQAPGKEREFVAYTRWTDDNTDYASYADFVKGRFTAFRDNTRNTMYLQMNRLRPEDTAVYYCAAATTRGTYYSAGDYNSWGQGTQVTVSS
notes: as for B1
B4: PVRIG-A30 (VHH)
VHH: QVQLVESGGGLVQPGGSLRLSCAASGRTDSMNVMGWFRRAPGKEREFVARIKWNGDTTYTAYADFLKGRFTLYGAVARNRVYLQMNSLQPEDTAVYYCAAGEVSGSSYSPDYGMHYWGKGTLVTVSS
notes: as for B1
B5: PVRIG-A60 (VHH)
VHH: QVQLVESGGGLVQSGGSLRLSCAASGRTRSMYVMGWFRQAPGKEREFVGRIKWSGDTTYTSYADFVKGRFTLYGNQARNTVYLQMNSLKPEDAAVYYCNLRRLDGVNYWGKGTLVTVSS
notes: as for B1
B6: PVRIG-A75 (VHH)
VHH: QLQLVESGGGLVQSGGSLRLSCAASGRTRSMYVMGWFRQAPGKEREFVGRIKWSGDTTYTSYADFVKGRFTLYGNQARNTVYLQMNSLKPEDTAVYSCAASKFPVSGVPEHYDYWGQGTQVTVSS
notes: as for B1
B7: PVRIG-A35 (VHH)
VHH: EVQVVESGGGLVQSGGSLRLSCAASGRTRSMYVMGWFRQAPGKEREFVGRIKWSGDTTYTSYADFVKGRFTLYGNQARNTVYLQMNSLKPEDTAVYYCNGRSRFNVINAWGTGTLVTVAS
notes: as for B1
B8: PVRIG-A105-H5 (Fc fusion)
chain: B2 chain with V79L, S103C, S108C, T122I, M123Q
notes: humanized variant of PVRIG-A105; also called A105.VH5; not shown: constant part not restated for the humanized forms; parents are VHH-hinge-CH2-CH3 of human IgG1; detected by anti-human
B9: PVRIG-A105-H2 (Fc fusion)
chain: B2 chain with V79L, S103C, S108C
notes: humanized variant of PVRIG-A105; also called A105 VH2; not shown: constant part not restated for the humanized forms; parents are VHH-hinge-CH2-CH3 of human IgG1; detected by anti-human

Key:
[1] = biological target: T1, human PVRIG-mFc protein (Acro, …); experiment: competition FACS; blocked: human PVRIG-mFc binding to CHO-K1-CD112 cells
Method: After incubation, the cells were added with staining buffer (2% FBS+PBS) to stop staining, centrifuged at 350×g to remove the supernatant, washed twice and resuspended with staining buffer to a density of 1×10⁶ cells/mL. The cells were plated into a 96-well plate (50 μL of cell suspension per well) for further use. A working solution of human PVRIG-mFc protein (Acro, PVG-H5253) prepared with staining buffer, 1 μg/mL (four-fold concentration), was added into a 96-well plate (50 μL PVRIG-mFc working solution per well). […] The diluted antibodies were added to the well containing 50 μL of PVRIG-mFc. The plate was placed on a microplate shaker at 400 rpm for 1 minute to fully mix the antibodies and PVRIG-mFc proteins, and then incubated at 4° C. for 30 minutes. After the incubation, the cell suspension prepared above (100 μL) was added into the wells, gently mixed with the pipette tip and incubated at 4° C. for 30 minutes. After the incubation, the cells were washed twice with staining buffer (200 μL per well) and centrifuged at 350×g for 5 minutes to discard the supernatant. The PE goat anti-mouse IgG Fc antibody (Biolegend, 405337) was diluted 250 times with staining buffer, added into the washed wells (100 μL per well), mixed well, and stained at 4° C. for 30 minutes. After staining, the cells were washed twice with staining buffer, finally resuspended with 200 μL staining buffer and analyzed by flow cytometry (BD, Canto II). The weaker the fluorescence signal, the stronger the ability of the antibodies blocks the binding of CHO-K1 human CD112 cells to the PVRIG-mFc protein. An antibody binding curve was drawn with concentration of antibodies as the abscissa and the corresponding Mean Fluorescence Intensity (MFI) as the ordinate. The IC50 value of the antibodies and the AUC value of the binding curve were calculated by using a Four Parameter Logistic Fit (GraphPadPrism9). The smaller the IC50 value and AUC value, the stronger the ability of the antibodies competes with CHO-K1-CD112 cells to bind to human PVRIG-mFc protein.

[2] = biological target: T2, human PVRIG-his (AcroBiosystems, Cat …); experiment: competition ELISA on coated human PVRIG-his; blocked ligand human PVRL2-mFc
Method: (§1) The ELISA plate was pre-coated with 100 μL/well of 0.5 μg/mL human PVRIG-his protein (AcroBiosystems, Cat NO. PVG-H52H4). The tested anti-PVRIG antibodies were diluted from the highest concentration of 16 nM (two-fold concentration). The diluted antibodies were mixed with 18 ng/ml human PVRL2-mFc (AcroBiosystems, Cat NO. CD2-H5257) in equal volume, added into the plate (100 μL/well), and incubated with shaking at room temperature for 2.0 hours. […] A HRP substrate, TMB (Thermo, Cat NO. 34029) was added into wells after washing the plate again for color development. After adding a termination solution to terminate the reaction, the absorbance value was read by a microplate reader (MD i3×). An inhibiting curve was drawn with concentration of antibodies as the abscissa and the corresponding OD value as the ordinate. The IC50 value was calculated by using a Four Parameter Logistic Fit (GraphPadPrism9). The smaller the IC50 value, the stronger the ability of the antibodies inhibits the binding between PVRIG and PVRL2. The positive and negative controls are the same as in Example 8.

[3] = biological target: T3, human PVRIG-his (AcroBiosystems, Cat …); experiment: ELISA, antigen coated
Method: (§2) The ELISA plate was pre-coated with 100 μL/well of 0.5 μg/mL human PVRIG-his (AcroBiosystems, Cat NO. PVG-H52H4) or cynomolgus monkey PVRIG (Novoprotein, Cat NO. C09B). The tested anti-PVRIG humanized antibodies were serially diluted (initial concentration 3 nM, 3-fold serial dilution), added into the plate (100 μL/well) and incubated with shaking at room temperature for 1.5 hours. […] A HRP substrate, TMB (Thermo, Cat NO. 34029) was added into wells after washing the plate again for color development. After adding a termination solution to terminate the reaction, the absorbance value was read by a microplate reader (MD i3×). An antibody binding curve was drawn with concentration of antibodies as the abscissa and the corresponding OD value as the ordinate. The EC50 value was calculated by using a Four Parameter Logistic Fit (GraphPadPrism9). The smaller the EC50 value, the stronger the ability of the antibodies binds to human or cynomolgus monkey PVRIG. The binding effect of the humanized antibodies was normalized to the corresponding parental antibodies. If the percentage value is higher than 100%, the binding effect of humanized antibodies is better than that of parental antibody.

[4] = biological target: T4, cynomolgus monkey PVRIG (Novoprotein, …); experiment: ELISA, antigen coated
Method: as §2

[5] = biological target: T5, human PVRIG on FlpinCHO-PVRIG cells; experiment: FACS, FlpinCHO-PVRIG cells
Method: The Ham's F12 (Gibico, 21127-022) complete medium containing 10% FBS was then added to terminate the digestion and acquire cell suspension. After counting with a cell counter (Beckman Coulter, Vi-CELL), an appropriate amount of cell suspension was centrifuged at 350×g to remove the supernatant, washed twice with PBS, stained with Zombie violet (Biolegend, 423114) and incubated at room temperature for 20 minutes. After incubation, the cells were added with staining buffer (2% FBS+PBS) to stop staining, centrifuged at 350×g to remove the supernatant, washed twice and resuspended with staining buffer to a density of 2×10⁶ cells/mL. The cells were plated into a 96-well plate (50 μL of cell suspension per well) for further use. The antibodies were diluted from the highest concentration of 46 nM (two-fold concentration) with staining buffer by 3.3-fold serial dilution. The diluted antibodies were added to the well containing 50 μL of cell suspension. The plate was placed on a microplate shaker at 400 rpm for 1 minute to fully mix the antibodies and cells, and then incubated at 4° C. for 30 minutes. After the incubation, the cells were washed twice with staining buffer (200 μL per well) and centrifuged at 350×g for 5 minutes to discard the supernatant. The PE goat anti-human IgG Fc antibody (ebioscience, 12-4998-82) was diluted 250 times with staining buffer, added into the washed wells (100 μL per well), mixed well, and stained at 4° C. for 30 minutes. After staining, the cells were washed twice with staining buffer, finally resuspended with 200 μL staining buffer and analyzed by flow cytometry (BD, Canto II). The stronger the signal, the stronger the ability of the antibodies binds to PVRIG. An antibody binding curve was drawn with concentration of antibodies as the abscissa and the corresponding Mean Fluorescence Intensity (MFI) as the ordinate. The AUC value of the curve was calculated by using a Four Parameter Logistic Fit (GraphPadPrism9). The stronger the AUC value, the stronger the ability of the antibodies binds to FlpinCHO-PVRIG and FlpinCHO-cyno PVRIG. […] The binding activity of the antibodies was normalized to the positive control COM701-hIgG1 and SRF813-hIgG1.

[6] = biological target: T3, human PVRIG-his (AcroBiosystems, Cat …); experiment: competition ELISA, PVRIG-His coated, competitor human PVRL2-mFc; design: AUC: unit not given here
Method: as §1
The methods refer to Example 11. The inhibiting activity of the humanized antibodies was normalized to the corresponding parental antibodies. If the percentage value is higher than 100%, the inhibiting effect of humanized antibodies is better than that of parental antibodies.

[7] = biological target: T3, human PVRIG-his (AcroBiosystems, Cat …); experiment: SPR (BIAcore), antibody captured on Protein A chip, human PVRIG-His analyte
Method: Biacore was used to detect the specific binding between anti-PVRIG antibody and human PVRIG protein. Protein A chip was used in the BIAcore assay. The time required for the chip to capture the diluted antibody and saturate the binding antigen to reach Rₘₐₓ (Maximum binding capacity, 50 RU) was measured by manual run. […] The affinity of antibody for antigen was measured by multi-cycle kinetics. In each cycle, the antibodies were injected prior to the injection of gradient concentraions of PVRIG proteins allowing the occurrence of antibody-antigen association and dissociation After each cycle, the Protein A chip was regenerated by Glycine, pH 1.5 (to remove the proteins on the chip). The affinity of antibody for antigen was calculated by BIAcore T200 analysis software.
The methods refer to Example 10.

Row | Binder | IC50 (read off the curve) [1] [nM] | IC50 (read off the curve) [2] [nM] | EC50 [3] [nM] | EC50 [4] [nM] | other results
1 | B1 | ~1 | ~1 |  |  | 
2 | B2 |  |  | 7.41 | 1.27 | % relative activity parental antibody/tested antibody [3]: 0.99%; % relative activity parental antibody/tested antibody [4]: 2.53%; AUC % to COM701-hIgG1 [5]: 15.9%; AUC % to SRF813-hIgG1 [5]: 23.9%; AUC % to parental Ab [5]: 12.8%; % relative activity (AUC) parental antibody/test antibody [6]: 47.2%; AUC [6]: 5.37
3 | B3 | ~1 | ~2 |  |  | 
4 | B4 | ~1 | ~2 |  |  | 
5 | B5 | ~1 | ~1 |  |  | 
6 | B6 | ~0.8 | ~1 |  |  | 
7 | B7 | ~1 | ~1 |  |  | 
8 | B8 |  |  | 0.0678 | 0.0377 | % relative activity (IC50) parental antibody/test antibody [6]: 114%; IC50 [6]: 0.647 nM; Kd [7]: 0.818 nM; koff [7]: 0.00091 s⁻¹; kon [7]: 1.11e+06 M⁻¹ s⁻¹
9 | B9 |  |  | 0.0515 | 0.0343 | % relative activity (IC50) parental antibody/test antibody [6]: 128%; IC50 [6]: 0.577 nM; Kd [7]: 0.693 nM; koff [7]: 0.00092 s⁻¹; kon [7]: 1.33e+06 M⁻¹ s⁻¹
